We go through 36 sequences from the supplement of paper PMC10567573.

The series in a line: protein stability index of a GFP-peptide fusion (GPS, HEK-293T) (PSI 1-6); higher = more stable. As to conditions: c terminus: a fixed tail appended.

± gives the standard deviation.
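Also: 24-mer peptide tiles fused after GFP, lentivirally expressed, FACS-sorted into six equal bins by GFP/DsRed ratio, decoded by Illumina sequencing, PSI is the read-weighted mean bin number.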

Take NSGHTIFNDPFFIVETVCIVWFSF [KCNA4]: the protein stability index reads like this: (treatment: DMSO) 3.49 ± 0.58; (treatment: MLN4924 1 uM, 8 h) 3.51 ± 0.31.
On the same counts, the results for NSKPCISLNGPLSTSRHVMAPVMA [ADAMTS4] are 2.83 ± 0.39 and 3.12 ± 0.19.
On the same counts, the results for NSRRNINYRSFEPILRLLPQGISP [ZER1] are 2.3 ± 0.2 and 2.54 ± 0.17.
On the same counts, the results for NSSEELSSALHLSKGMSIFLDILR [NECAB1] are 2.38 ± 0.13 and 2.54 ± 0.21.
For NTGKTYFFVANKYWRYDEYKRSMD [MMP1], the protein stability index (treatment: DMSO) turned out to be 1.98 ± 0.17 and the protein stability index (treatment: MLN4924 1 uM, 8 h) came to 2.2 ± 0.19.
On the same counts, the results for NTKAEMEMSLAEELNHGRQGENQE [FATE1] are 5.53 ± 0.16 and 5.64 ± 0.12.
On the same counts, the results for NTNTLKVPECRLAEDLGNLWENTR [SPOPL] are 3.22 ± 0.26 and 3.41 ± 0.34.
For NVPLSISRLTPGGKAAQAGVAVGD [PDLIM7], in that order: 4.05 ± 0.23 and 4.18 ± 0.13.
For the sequence NVTNLEGGPGRQTTSPNVLWPTPG [ESR2], the protein stability index amounted to 3.17 ± 0.35 (treatment: DMSO) and 3.17 ± 0.37 (treatment: MLN4924 1 uM, 8 h).
On to NWGNGKRPNLETYYERVLKRKTFN [GDAP1], for which the protein stability index reads like this: (treatment: DMSO) 2.57 ± 0.12; (treatment: MLN4924 1 uM, 8 h) 2.79 ± 0.52.
For PAICALRHLTSRHQEAEMAQNAVR [CTNNB1], in that order: 3.2 ± 0.5 and 3.67 ± 0.32.
On the same counts, the results for PAPASSTPQEPWPGPTAPSPTSRP [PDLIM7] are 5.07 ± 0.093 and 5.13 ± 0.22.
On the same counts, the results for PASGASSIKPEASQMPPPAGGTSD [SCNN1D] are 5.43 ± 0.14 and 5.45 ± 0.19.
On to PDLESGSESGADTISVNQTRVNLS [DLC1], for which the protein stability index worked out at 5.12 ± 0.26 (treatment: DMSO) and 5.16 ± 0.2 (treatment: MLN4924 1 uM, 8 h).
For the sequence PDLLPTDYRKQLQYPNPLPVLSGA [VPS39], the protein stability index by setting is: (treatment: DMSO) 3.34 ± 0.4; (treatment: MLN4924 1 uM, 8 h) 3.43 ± 0.14.
PDPLNICVFILLLVFIVVKCFTSE [RTP4]: the protein stability index by setting is: (treatment: DMSO) 2.97 ± 1.2; (treatment: MLN4924 1 uM, 8 h) 2.72 ± 0.81.
For PDRASGPEGSLSQTMAGSSPNTPQ [FAM104A], in that order: 5.3 ± 0.21 and 5.34 ± 0.2.
For PEEKKEEEGSANRRPEDQELESLS [CHGA], in that order: 5.58 ± 0.34 and 5.71 ± 0.12.
The sequence PEGGMEQALAGASSGRELGRPKEL [ZNF263] had a protein stability index (treatment: DMSO) of 4.92 ± 0.11 and a protein stability index (treatment: MLN4924 1 uM, 8 h) of 5.29 ± 0.17.
Regarding PESADTGDKSESPDEANVGKHPKD [TOR1AIP2], the protein stability index by setting is: (treatment: DMSO) 5.57 ± 0.14; (treatment: MLN4924 1 uM, 8 h) 5.601 ± 0.053.
On the same counts, the results for PETLPESSLFSVEANSSNSQKNEK [C8orf76] are 5.54 ± 0.14 and 5.41 ± 0.4.
In the case of PETVMTTLYTAKKYAVPALEAHCV [BTBD1], the protein stability index stood at 2.7 ± 0.13 (treatment: DMSO) and 2.83 ± 0.15 (treatment: MLN4924 1 uM, 8 h).
For PEVVQHEEFILLSQGEVEKLIKCD [KLHL12], in that order: 3.99 ± 0.4 and 3.86 ± 0.75.
On the same counts, the results for PFLLLFLGNFFTTLRVVHHKFHSQ [TMEM120A] are 3.28 ± 0.37 and 3.1 ± 0.22.
Regarding PGESLECPAELRPQVPQPPSPAAV [TRAF3IP2], the protein stability index reads like this: (treatment: DMSO) 5.31 ± 0.077; (treatment: MLN4924 1 uM, 8 h) 5.18 ± 0.43.
On the same counts, the results for PGKLFIGGLNRETNEKMLKAVFGK [RBMY1A1] are 2.69 ± 0.12 and 2.86 ± 0.14.
On the same counts, the results for PGLGQESKAPGSCDPGTDPCPEDA [TLE6] are 5.65 ± 0.27 and 5.55 ± 0.22.
Regarding PGSGPGHGSGSHPGPASGPGPDTG [SPAG8], the protein stability index (treatment: DMSO) was 5.36 ± 0.16 and the protein stability index (treatment: MLN4924 1 uM, 8 h) is 5.34 ± 0.069.
For PHAPPFAGGHPAQLGLGRGASTFK [JUNB], in that order: 4.11 ± 0.083 and 4.34 ± 0.066.
For PIGILTTSYCELLQNKVPLLGSST [PPTC7], in that order: 2.63 ± 0.53 and 2.66 ± 0.47.
For PKPADFRNPGPGRHRLITQVYLSH [INTS4], in that order: 2.59 ± 0.17 and 2.57 ± 0.24.
On to PKRLRCWEEEEDHEKERPEHKSLE [FANCE], for which the protein stability index came out at 5.32 ± 0.17 (treatment: DMSO) and 5.37 ± 0.33 (treatment: MLN4924 1 uM, 8 h).
On the same counts, the results for PKSLVRLSLEAVICFKEMLANSWN [KLHDC2] are 2.41 ± 0.65 and 2.49 ± 0.3.
On the same counts, the results for PLELMRTKLQAQHVSYRELGACVR [SLC25A39] are 2.67 ± 0.24 and 2.92 ± 0.16.
PLKLHYQLRNVRERLAKNLVEKGV [GOLPH3]: the protein stability index runs as follows: (treatment: DMSO) 2.4 ± 0.15; (treatment: MLN4924 1 uM, 8 h) 2.7 ± 0.3.
On the same counts, the results for PLLLFTYLNSFLHQRIPQSVRILG [SLC29A1] are 2.96 ± 0.54 and 2.97 ± 0.54.
